# Experimental data: the nanobody polyreactivity screen of Harvey et al. (2022)
# Assay: yeast display, Sf9 membrane polyspecificity reagent, FACS + sequencing; frameworks hold sequencing errors
# How it was run: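 Polyreactivity labels are assigned by the sorting gate from which each nanobody was recovered. The gates were low and high (top ~1%), set on anti-HA fluorescence for expression and streptavidin fluorescence for reagent binding. Before sorting, galactose-induced (36–48 hours) yeast display cells were stained for 1 hour at 4 °C with 10% biotinylated, detergent-solubilized Sf9 membrane reagent.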
row,Sequence,polyreactivity (PSR sort gate)
1,QVQLVESAGGLVQAGGSLRLSCAASGFIFVKYAMGWDRQAPGKERELVAAISSRGGITYYADSVKGRYTISRDNAENTVYLQMISLKPADTAVYYCNTVSRGYRGNYWGQGTQVTVSS,low polyreactivity
2,QGQLVESGGGLVQAGGSLRLSCAASGRIFVTYAMGWYRQAPGKERELVATINSGGSTYYADSVKGRFTISRDNAKNTVYLQMNSLKPEDTAVYYCNTDFGQAHTLSWYEDMDYWGQGTQVTVSS,low polyreactivity
3,QVQLVESGGGLVQAGGSLRLSCAASGRIIRSYAMVWYRQAPGKERELVAAISYSGGSTYYADSVKGRFTISRDNAKNTVYLQMNSLKPEDTAVYYCAALPGERKYIYYGYDYWGQGTQVTVSS,high polyreactivity
4,QVQLVESGGGLVQARGSLRLSCAASGRIFWSNAMGWYRQAPGKERELVAAISYSGDSTYYADSVKGRFTISRDNAKNTVYIQMKSLKPEDTAVYYCTAVGHRSYRYDYWGQGTQVTVSS,high polyreactivity
5,QVQLVESGGGLVQAGGSLRLSCAASGRIFYVNAMGWYRQAPGKERELVATIRYSGGSTYYADSVKGRFTISRDNAKNTVYLQMNSLKPEDTAVYYCAARVADYYPGRGYGYWGQGTQVTVSS,high polyreactivity
6,QVQLVESGGGVVQAGGSLRLSCAASGSTFTVNGMGWYRQAPGKERELVAAIVGGDGSTYYADSVKGRFTISRDNAMNTVYLQMNSLKPEDTAVYYCAADPPGFTQYGYWGQGTQVTVSS,low polyreactivity
7,QVQLVESGGGVVQAGGSLRLSCAASGRIFVRNAMGWYRQAPGKERELVAAISRSGGSTSYADSVKGRFTISRDNAKTTVYLQMNSLKPEDTAVYDCAARYARYQYQYDYWGQGTQVTVSS,high polyreactivity
8,QVQLVESGGGLVQAGGSLRLSCAASGSIFTSNAMGWYRQAPGKERELVAVISRRGGSTYYADSVKGRFTISRDNAKNTVYLQMNSLKPEDTAVYYCARRPYSYTRYEYWGQGTQVTVSS,low polyreactivity
9,QVQLVESGGGLVQAGGSLRLSCSASGFIFQGYAMGWDRQAPGKERELVATITTSSRTYYADSVKGRFTISRDNAKNTVYLQMYSLKPEDTAVYYCATRGSYRSQRWYGYWGQGTQVTVSS,high polyreactivity
10,QVQLVESGGGLVQAGGSLRLSCAASGSTFYSYAMGWYRQAPGKERELVAAITIISGSTYYADSVKGRFTISRDNAKNTVYLQMNSLKPEDTAVYYCAADSYYSFVPLDEYWGQGTQVTVSS,high polyreactivity
11,QVQLVESGRGLVQAGGSLRLSCAASGSIFKYYAMGWYRQAPGKERELVAAITSGGSTSYADSVKGRFTISRDNAKNTVYLQMNSLKPEDTAVYYCAAELRSWRSYGSVWRWYYYWGQGTQVTVSS,high polyreactivity
12,QVQLVESGGGLVQAGGSLRLSCAASGRIFPYYAMGWYRQAPGKERELVAAISYSGGRTYYADSVKGRFTISRDNAKNTVYLQMNSLKPEDTAVYYCSAVVYLGYEYDYWGQGTQVTVSS,low polyreactivity
13,QVQLVESGGGLVQAGGSLRLSCAASGRTFTFYTMGWDRQAPGKERELVARITGGGSTYYADSVKGRFTISRDNAKNTVYLQMNSLKPEDTAVYYCAAASGTKRLYRGTRGDYWGQGTQVTVSS,low polyreactivity
14,QVQLQESGGGLVQAGGSLRLSCAASGSISILENMGWYRQPPGLGRDFVAGIGYGSSTYYADSVKGRFTISRDNAKNTVYQQMNSLKPEDTTVYYCAVVEYQCVTYLYWGQGSQVTVSS,low polyreactivity
15,QVQLVESGGGLVQAGGSLRLSCAASGLIFDRSAMGWYRPAPGKERELDAASRWTGASSTYYADSVKGRFTISRDNAKNTVYLQMNSLKPEDTAVYYCNADSPYSFATGPYVLDSDYWGQGTQVTVSS,low polyreactivity
16,QVQLVESGGGLVQAGGSLRLTCAASGFIFSRYTMGWYRQAPGKERELVAAISRRGGNTYYADSVKGRFTISRDNAKNTVYLQMNSLKPEDTAVYYCAADYAWPLRVTGDYWGQGTQVTVSS,low polyreactivity
17,QVQLEESGGGLVQAGGSLRLSCAASGSTFESYAMGWYRQAPGKERELVAAISWRVGSTYYADSVKGRFTISRDNAKNTFYLQMNILKPEDTAVYYCASKGWYSHYGGYDYWGQGTQVTVSS,low polyreactivity
18,QVQLVESGGGLVQAGGSLRLSCAASGRIFDIYAMGWYRQAPGKERELVAGITSVGSTNYADSVKGRFTISRDNAKNTVYLQMNSLKPEDTAFYYCAADTSVHSEVDYWGQGTQGTVSS,low polyreactivity
19,QVQLEESGGGLVQAGGSLRISCAASGSIVRYKAMGWYRQAHGKERELVAAISSRGGSTYYADSVKGRFTISRDNAKNTVYLQMNSLKPEDTAVYYCNVRWTYKYDYWGQGTQVTVSS,high polyreactivity
20,QVQLVESGGGLVQAGGSLRLSCAASGSIFLPYAMGWYRQAPGKERELVAAIDTSSGSTYYADSVKGRFTISRDNAKNTVYLQMNSLKPEDTAVYYCNADYWVQGDDWLLYDYWGQGTQVTVSS,low polyreactivity
21,QVQLVESGGGLVQAGGSLRLSCAASGSIFRLYGKGLYRQAPGKEREFGASITYRGGNTYYADSVKGRFTISRDNAKNTVYLQMNSLKPEDTAVYYCARSGYQKVGGFRYDYWGQGTQVTVSS,low polyreactivity
22,QVQLVESGGGLVQARGSLRLSSAPSGRTFTVYAMGWYRHARGKERELVAAIRRTGSTYYADSVKGRFTISRDNAKNTVYLQMNSLKPEDTAVYYCYARPSTGWSIYGVDYWGQGTQGTVSS,low polyreactivity
